Data as given in patent EP4813396A2 (Amphivena Therapeutics, Inc., dated 2026).
Substitutions are numbered along the chain they refer to. Values joined by “and” are separate entries in the source; they are usually repeats but may differ in a detail not shown here. Equal values may be shown once. One block for each binder: values may come before it.

What was measured:
human CD3 on T cells [1] = target: T1, human CD3 on T cells (human, UniProt P07766 23-207); assay: cell-based or functional assay
human CD33 on cells [2] = target: T2, human CD33 on cells (human, UniProt P20138 18-364); assay: cell-based or functional assay
human CD33 on cells [3] = target: T2, human CD33 on cells; assay: flow cytometry, titration on HL-60 cells
human CD33 on cells [4] = target: T2, human CD33 on cells; assay: flow cytometry, titration on U-937 cells
[5] = target: cynomolgus CD33 on CHO cells (cynomolgus monkey); assay: flow cytometry; KD on CHO-cynomolgus CD33 cells divided by KD on CHO-human CD33 cells
human CD3 on T cells [6] = target: T1, human CD3 on T cells; assay: flow cytometry, titration on human CD3+ T cells (Jurkat per paragraph 124/paragraph 125)
human CD33 on cells [7] = target: T2, human CD33 on cells; assay: cell-based or functional assay; remark: listed apart in the source
human CD33 on cells [8] = target: T2, human CD33 on cells; assay: cell-based or functional assay; remark: listed apart in the source
human CD33 on cells [9] = target: T2, human CD33 on cells; assay: cell-based or functional assay; remark: listed apart in the source
human CD33 on cells [10] = target: T2, human CD33 on cells; assay: flow cytometry, HL-60 cells
human CD33 on cells [11] = target: T2, human CD33 on cells; assay: flow cytometry, titration on KG-1 cells
human CD3 on T cells [12] = target: T1, human CD3 on T cells; assay: flow cytometry, human T-cells (as headed in Table 10)
human CD33 on cells [13] = target: T2, human CD33 on cells; assay: cell-based or functional assay; remark: listed apart in the source

T2 sequence (P20138 18-364): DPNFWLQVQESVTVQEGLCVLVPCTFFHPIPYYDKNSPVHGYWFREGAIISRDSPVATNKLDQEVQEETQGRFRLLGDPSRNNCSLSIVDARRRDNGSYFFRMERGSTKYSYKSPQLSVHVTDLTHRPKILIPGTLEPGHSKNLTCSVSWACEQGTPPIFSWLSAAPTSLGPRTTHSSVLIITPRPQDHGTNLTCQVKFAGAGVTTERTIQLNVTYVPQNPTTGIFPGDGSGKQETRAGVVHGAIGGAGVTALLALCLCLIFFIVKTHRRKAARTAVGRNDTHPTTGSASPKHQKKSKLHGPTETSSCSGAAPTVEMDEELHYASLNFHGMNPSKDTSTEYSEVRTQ
T1 sequence (P07766 23-207): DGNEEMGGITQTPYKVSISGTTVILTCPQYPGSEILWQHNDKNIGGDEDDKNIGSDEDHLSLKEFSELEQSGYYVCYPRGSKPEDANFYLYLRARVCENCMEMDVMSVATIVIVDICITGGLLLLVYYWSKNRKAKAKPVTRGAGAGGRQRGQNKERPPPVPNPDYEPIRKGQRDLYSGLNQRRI

CD25 Induction EC50 (pM) (human CD3 on T cells [1]): 6 pM | CD69 Induction EC50 (pM) (human CD3 on T cells [1]): 3 pM | T cell Proliferation in PBMC EC50 (pM) (human CD3 on T cells [1]): 2 pM | Kd (human CD33 on cells [3]): 300 pM | Kd (human CD33 on cells [4]): 500 pM | KD ratio cynoCD33/ huCD33 [5]: 1.7 | Kd (human CD3 on T cells [6]): 1500 pM | IC50, lysis of KG-1 cells with human T cells (E:T 5:1, 24 h) (human CD33 on cells [7]): ~0.01 pM | EC50 [pM (pg/mL)] on human CD33+ target cell lines: mean of HL-60, U-937, KG-1 (human CD33 on cells [8]): 1.1 pM and 116 pg/mL | Kd (human CD33 on cells [10]): 300 pM | Kd (human CD33 on cells [11]): 900 pM | Kd (human CD3 on T cells [12]): 1500 pM
B1: CD33/CD3 tandem diabody 12 (bispecific antibody)
chain: DIQMTQSPSSLSASVGDRVTITCRSSTGAVTTSNYANWVQQKPGKAPKALIGGTNKRAPGVPSRFSGSLIGDKATLTISSLQPEDFATYYCALWYSNLWVFGQGTKVEIKGGSGGSQVQLVQSGAEVKKPGASVKVSCKASGYTFTSYDINWVRQAPGQGLEWMGWMNPNSGNTGFAQKFQGRVTMTRDTSTSTVYMELSSLRSEDTAVYYCARDRAVTDYYYGMDVWGQGTLVTVSSGGSGQSVLTQPPSASGTPGQRVTISCSGSRSNIGSNTVNWYQQLPGTAPKLLIYGNNQRPSGVPDRFSGSKSGTSASLAISGLQSEDEADYYCATWDDSLIGWVFGGGTKLTVLGGSGGSEVQLVESGGGLVQPGGSLRLSCAASGFTFSTYAMNWVRQAPGKGLEWVGRIRSKYNNYATYYADSVKDRFTISRDDSKNSLYLQMNSLKTEDTAVYYCARHGNFGNSYVSYFAYWGQGTLVTVSSAAAGSHHHHHH
notes: Non-covalent homodimer; domain order 1; also called TandAb 12
EC50 [pM] mean, cytotoxicity on BV-173 cells (human CD33 on cells [2]): 1.4 pM | EC50 [pM] mean, cytotoxicity on CHO-CD33 cells (human CD33 on cells [2]): 11.8 pM | EC50 [pM] mean, cytotoxicity on HL-60 cells (human CD33 on cells [2]): 1.4 pM | EC50 [pM] mean, cytotoxicity on K562 cells (human CD33 on cells [2]): 4.5 pM | EC50 [pM] mean, cytotoxicity on KASUMI-1 cells (human CD33 on cells [2]): 1.3 pM | EC50 [pM] mean, cytotoxicity on KG-1 cells (human CD33 on cells [2]): 1 pM | EC50 [pM] mean, cytotoxicity on RPMI-8226 cells (human CD33 on cells [2]): 14 pM | EC50 [pM] mean, cytotoxicity on THP-1 cells (human CD33 on cells [2]): 1.9 pM | EC50 [pM] mean, cytotoxicity on U-937 cells (human CD33 on cells [2]): 0.9 pM | EC50 [pM (pg/mL)] on human CD33+ target cell lines: HL-60 (cytotoxicity, E:T 5:1, 20-24 h) (human CD33 on cells [8]): 1.3 pM and 137 pg/mL | EC50 [pM (pg/mL)] on human CD33+ target cell lines: KG-1 (cytotoxicity, E:T 5:1, 20-24 h) (human CD33 on cells [8]): 1.2 pM and 126 pg/mL | EC50 [pM (pg/mL)] on human CD33+ target cell lines: U-937 (cytotoxicity, E:T 5:1, 20-24 h) (human CD33 on cells [8]): 0.8 pM and 84 pg/mL | EC50 on HL-60 [pM] (cytotoxicity) (human CD33 on cells [9]): 1.3 pM

CD25 Induction EC50 (pM) (human CD3 on T cells [1]): 1 pM | CD69 Induction EC50 (pM) (human CD3 on T cells [1]): 2 pM | T cell Proliferation in PBMC EC50 (pM) (human CD3 on T cells [1]): 3 pM | Kd (human CD33 on cells [3]): 300 pM | Kd (human CD33 on cells [4]): 300 pM | KD ratio cynoCD33/ huCD33 [5]: 1.4 | EC50 [pM], calcein release, HL-60 targets, E:T 25:1, incubation 30 min (human CD33 on cells [13]): 4.8 pM | EC50 [pM], calcein release, HL-60 targets, E:T 25:1, incubation 60 min (human CD33 on cells [13]): 2.5 pM | EC50 [pM], calcein release, HL-60 targets, E:T 25:1, incubation 120 min (human CD33 on cells [13]): 1.6 pM | EC50 [pM], calcein release, HL-60 targets, E:T 25:1, incubation 180 min (human CD33 on cells [13]): 1.6 pM | EC50 [pM], calcein release, HL-60 targets, E:T 25:1, incubation 240 min (human CD33 on cells [13]): 1.5 pM | EC50 [pM], calcein release, HL-60 targets, E:T 25:1, incubation 300 min (human CD33 on cells [13]): 1.6 pM | Kd (human CD3 on T cells [6]): 2100 pM | IC50, lysis of KG-1 cells (separate experiment) (human CD33 on cells [7]): 5 pM | IC50, lysis of KG-1 cells with human T cells (E:T 5:1, 24 h) (human CD33 on cells [7]): ~0.5 pM | EC50 [pM (pg/mL)] on human CD33+ target cell lines: mean of HL-60, U-937, KG-1 (human CD33 on cells [8]): 1.7 pM and 179 pg/mL | Kd (human CD33 on cells [10]): 300 pM | Kd (human CD33 on cells [11]): 200 pM | Kd (human CD3 on T cells [12]): 5100 pM
B2: CD33/CD3 tandem diabody 16 (bispecific antibody)
chain: B1 chain with V218N, Y222S, Y223L
notes: Non-covalent homodimer; domain order 1; also called TandAb 16
EC50 [pM] mean, cytotoxicity on BV-173 cells (human CD33 on cells [2]): 3.2 pM | EC50 [pM] mean, cytotoxicity on CHO-CD33 cells (human CD33 on cells [2]): 24 pM | EC50 [pM] mean, cytotoxicity on HL-60 cells (human CD33 on cells [2]): 1.6 pM | EC50 [pM] mean, cytotoxicity on K562 cells (human CD33 on cells [2]): 4.8 pM | EC50 [pM] mean, cytotoxicity on KASUMI-1 cells (human CD33 on cells [2]): 2.4 pM | EC50 [pM] mean, cytotoxicity on KG-1 cells (human CD33 on cells [2]): 1.9 pM | EC50 [pM] mean, cytotoxicity on RPMI-8226 cells (human CD33 on cells [2]): 2.8 pM | EC50 [pM] mean, cytotoxicity on THP-1 cells (human CD33 on cells [2]): 6 pM | EC50 [pM] mean, cytotoxicity on U-937 cells (human CD33 on cells [2]): 1.3 pM | EC50 [pM (pg/mL)] on human CD33+ target cell lines: HL-60 (cytotoxicity, E:T 5:1, 20-24 h) (human CD33 on cells [8]): 1.5 pM and 158 pg/mL | EC50 [pM (pg/mL)] on human CD33+ target cell lines: KG-1 (cytotoxicity, E:T 5:1, 20-24 h) (human CD33 on cells [8]): 1.8 pM and 189 pg/mL | EC50 [pM (pg/mL)] on human CD33+ target cell lines: U-937 (cytotoxicity, E:T 5:1, 20-24 h) (human CD33 on cells [8]): 1.9 pM and 200 pg/mL | EC50 on HL-60 [pM] (cytotoxicity) (human CD33 on cells [9]): 1.5 pM
